B1: TPR t1 (parent)
chain: GACCAAUCUGCCCUCAGAGCUCGAGAACAUCUUCGGAUGCAGAGGAGGCAGGCUUCGGUGGCGCGAUAGCGCCAACGUCCUCAACCUCCAAUGCAUCCCACCACAUGAUGAUGCCUGAAGAGCCUUGGUUUUUUG

Variants of: B1
Assay: polymerase ribozyme fitness, log enrichment relative to wild type (log ratio); higher = more active; in vitro selection for triplet polymerase activity
How it was run: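 After PCR construction and transcription, each subunit's mutant library from a heterodimeric triplet polymerase ribozyme was annealed with a biotinylated primer, the partner subunit and triplets. Incubation was frozen, at −7 °C, and extended constructs were gel-excised, bound to streptavidin beads and amplified by RT-PCR, in one selection round done in triplicate. Fitness is the logarithm of a genotype's enrichment divided by that of the wild type, from inverse-variance-weighted replicate averages of Illumina-sequenced inputs and outputs. The base of the logarithm is 2, and genotypes needed ≥10 input reads and ≥1 read per output.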

Compared with GACCAAUCUGCCCUCAGAGCUCAAGAACAUCUUCGAAUGCAGAGGAGGCAGGCUUCGGUGGCGCGAUAGCGCCAACGUCCUCAACCUCCAAUGCAUCCCACCACAUGAUGAUGCCUGAAGAGCCUUGGUUUUUUG [G23A G36A], GACCAAUCUGCACUGAGAGCUCGAGAACAUCUUCGGAUGCAGAGGAGGCAGGCUUGGGUGGCGCGAUAGCGCCAACGUCCUCAACCUCCAAUGCAUCCCACCACAUGAUGAUGCCUGAAGAGCCUUGGUUUUUUG [C12A C15G C56G] is higher in “polymerase ribozyme fitness (log ratio)” value: -5.32 for the first, -2.69 for the second.

First: GACCAAUUUGCCCUCAGAGCUCGAGAACAUCUUCGGAUGCAGAGGAGGCAGGCUUCGGACGCGCGAUAGCGCCAACGUCCUCAACCUCCAAUGCAUCCCACCACAUGAUGAUGCCUUAAGAGCCUUGGUUCUUUG [C8U U59A G60C G117U U131C]
Second: GACCAAUCUGCCUUCAGAGCUCGAGAACAUCUUUGGAUGCAGAGGAGGCAGCCUUCGGUGGCGCGAUAGAGCCAACGUCCUCAACCUCCAAUGCAUCCCACCACAUGAUGAUGCCUGAAGAGCCUUGGUUUUUUG [C13U C34U G52C C70A]
The “polymerase ribozyme fitness (log ratio)” value of the first is higher: -0.987 for the first, -5.48 for the second.

Going from GACCAAUCUGCCCUCAGAGCUCGAGAACAUCUUCGGAUGAAGAGGAGGCAAGCUUCGGUGGCGCGAUAGCGCCAACGCCCUCAACCUCCAAUGCAUCCCACCACAUGAUGAUGCCUGAAGAGCAUUGGUUUUUUG [C40A G51A U78C C124A] to GACCAAUCUGCCCGUAGAGCUCGAGAACAUCUUCGGUUGCAGAGGAGGCAGGCUUAGGUGGCGCGCUAGCGCCAACGUCCUCAACCUCCAAUGCAUCCCACCACAUGAUGAUGCCUGAAGAGCCUUGGUUUUUUG [U14G C15U A37U C56A A66C], the “polymerase ribozyme fitness (log ratio)” value falls from -3.18 to -5.37.

Going from GACCACUCUGCCCUCAGAGCUCGAGAACAUCUUCGGAUGCAGAGGAGCCAGGCUUCGGUGGCGCGAUAGCGCCAACGUCCUCAACCUCCAAUGCAUCCCACCACAUGAUGAUGCCUGAAGAGCCUUGGUUUUUUG [A6C G48C] to GACCAAUCAGCCCUCAGAGCUCGAGACCAUCUUCGGAUGCAGAGGAGGCAGGCUUCGGUGGCGCGAUAGCACCAACGUCCUCAACCUCCAAUGCAUCCCACCACAUGAUGAUGCCUCAAGAGCCUUGGUUUUUUG [U9A A27C G71A G117C], the “polymerase ribozyme fitness (log ratio)” value falls from -1.5 to -6.31.

First: GACCAAUCUGCCCUUAGAGCUCGAGAACAUCUUCGGAUGCAGAGGAGGCAGGCUUCGGUGGCGCGAUAGCGCCAACAUCCUCAACCGCCAAUGCAUCCCACCACAUGAUGAUGCCUGAAGAGCCAUGGUUUUUUG [C15U G77A U87G U125A]
Second: GACCAAUCUGCCCUCAGAGCUCGAGAACAUCUUCGGAUGCAGAGGAGGCAGGCUUCGGUGGCGCGAUAGCGCCAACGUCCUCAACCUCCCAUGCAUCCCACUACAUGAUGGUGCCUGAAGAGCCUUGGUUUUUUG [A90C C102U A111G]
The “polymerase ribozyme fitness (log ratio)” value of the first is higher: -2.39 for the first, -4.24 for the second.

GACCAAUCUGCCUUCAGAGCUCGAGAACAUCUUCGGAUGCAGAGGAGGCAGGCUUCGGUGGCGCGAUAGCGCCAACGUCCUCAACCUCCAAUGCAUCCCACCACAUGAUGAUGCCUCAAGAGCCUUGGUUUUUUG [C13U G117C] and GACCAACCUGCCCUCGGAGUUCGAGAACAUCUUCGGAUGCAGAGGAGGCAGGCUUCGGUGGCGCGAUAGCGCCAACGUCCUCAACCUCCAAUGCAUCCCACCACAUGAUGAUGCCUGAAUAGCCUUGGUUUUUUG [U7C A16G C20U G120U] are within 0.2 log units of each other in “polymerase ribozyme fitness (log ratio)” value: -2.68 for the first, -2.78 for the second.

Going from GACCAAUCUGCCGUCAGAGCUCGAGAACAUCUUAGGAUACAGAGGAGGCAGGCUUCGGUGGCGCGAUAGCGCCAACGUCCUCAACCUCCAAUGCAUCCCACCACAUGAUGAUGCCUGAAGAGCCUUGGUUUUUUG [C13G C34A G39A] to GACCAAUCUGCCCUCAGAGCUCGAGAACAUCUUCGGAUGCAGAGGAGGCAGGUUUCGGUGGCUCGAUAGCGCCAACGUCCUCAACCUCCAAUGCAUCCCACCACAUGAUGAUGCCUGAAGAGCCUUGGUUUUUUG [C53U G63U], the “polymerase ribozyme fitness (log ratio)” value rises from -5 to -1.11.

Going from GACCAAUCUGCCCUCAGAGCUCGAGAACAUCUUCGGAUGCAGAGGAGGCAGGCUUCGGUGGCGCGAUAGCGCCAACGGCCUCAACCUCCCAUGCAUCCCACCACAUGAUGAUGCCUGAAGAGCCUUGGUUUUUUG [U78G A90C] to GACCAAUCCGCCCUCAGAGCUCGAGAACAUCUUCGGAUGCAGAGGAGGCAGGCUUCGGUGGCGCGAUAGCGCCAACGUCCUCAACCUCCCAUGCAUCCCACCACAUGAUGAUGCCUGAAGAGCCUUGGUUUUUUG [U9C A90C], the “polymerase ribozyme fitness (log ratio)” value rises from -1.6 to -0.197.

Going from GACCUAUCUGCUCUCAGAGCACGAGAACAUCUUCGGAUGCAGAGGAGGCAGGCUUCGGUGGCGCGAUAGCGCCAACGUCCUCAGCCUCCAAUGCAUCCCACCACAUGAUGAUGCCUGAAGAGCCUUGGUUUUUUG [A5U C12U U21A A84G] to GACCAAUCUGCCCUCAGAGCUCGAGAACAUCUUCGGAUGCAGAGGAGGCAGGCUUCGGUGGCGCGAUAGCGCCAACGUGCUCAACCUCCAAUGCAUCCCACCACAUGAUGAAGCCUGAAGAGCCUUGGUUUUUUG [C79G U112A], the “polymerase ribozyme fitness (log ratio)” value rises from -2.37 to -1.41.

First: GACCAAUCUGCCCUCAGAGCUCGAGAACAUCUUCGGAUGCAGAGGAGGCAGGCUUCGGUGGCGCGAUAGCGCCAACGUCCUCAACCUCCAAUGCAUCCCACCACAUAAUGAUGCCUGAAGAGCCUUGGUUUAUUG [G107A U132A]
Second: GACCAAUCUGCCCUCAGAGCUCGAGAACAUCUUCGGAUGCAGAGGAGGCAGGCUUCGGUGGCGCGAUAGCGCCAACGUCCUCAACCUGCAAUGCAGCCCACCACAUGAUGAUGCCUGAAGAGCCUUGGUUUUUUG [C88G U96G]
The “polymerase ribozyme fitness (log ratio)” value of the first is lower: -5.08 for the first, -0.738 for the second.

With GACCAAUCUGCCCUCAGAGCUCGAUAACAUCUUCGGAUGCAGAGGAGGCAGGCUUCGGUGGCGCGAUAGCGCCAACGUCCUCAACCUCCAAUGCAUCCCACCAUAUGAUGAUGCCUGAAGAGCCUUGGUUUUUUG [G25U C104U] the “polymerase ribozyme fitness (log ratio)” value was -5.92.
